Experimental data: paper PMC7113306

Biological target: T1, ALK2-Fc, Q04771
T1 chain: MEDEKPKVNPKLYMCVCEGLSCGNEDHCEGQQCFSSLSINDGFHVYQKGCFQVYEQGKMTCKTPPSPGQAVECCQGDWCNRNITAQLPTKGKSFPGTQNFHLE
Assay: SPR
Settings: ligand; chains chain; remark: other sources report otherwise

Kd: 83 nM
B1: BMP9 GF-domain (bone morphogenetic protein 9 growth factor domain), Q9UK05 320-429 (protein)
chain: SAGAGSHCQKTSLRVNFEDIGWDSWIIAPKEYEAYECKGGCFFPLADDVTPTKHAIVQTLVHLKFPTKVGKACCVPTKLSPISVLYKDDMGVPTLKYHYEGMSVAECGCR
